In the supplement of paper PMC7125110:
± gives the standard error. For part of these data: This sample holds only a part of the variants without activity.

B1: glmS ribozyme (parent)
chain: AUAAAAGCGCCAGAACUACAGAAAUGUAGUUGACGAGGAGGAGGUUUAUCGAAUUUUCGGCGGAUGCCUCCAAA

Tests used:
Conditions in all cases: with glucosamine-6-phosphate
[1] = variants of: B1; assay: kcat; higher = faster cleavage; RNA array
Procedure, shortened: (§1)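 Glucosamine-6-phosphate, from 40 μM to 10 mM in HEPES/KCl/Mg(OAc)2 buffer, was flowed over sequenced MiSeq chips carrying barcoded ribozyme variants transcribed in situ by E. coli RNA polymerase. A hybridised Cy3 probe tracked the variants at 37 °C as tiles were imaged over ~14 h. kobs, kcat and KM were obtained by fitting normalised per-tile medians to exponential decays and then applying weighted Michaelis–Menten fits across concentrations.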

[2] = variants of: B1; assay: self-cleavage kobs at 40 uM GlcN6P; higher = faster cleavage; RNA array
Procedure, shortened: as §1

[3] = variants of: B1; assay: self-cleavage kobs at 160 uM GlcN6P; higher = faster cleavage; RNA array
Procedure, shortened: as §1

[4] = variants of: B1; assay: self-cleavage kobs at 640 uM GlcN6P; higher = faster cleavage; RNA array
Procedure, shortened: as §1

[5] = variants of: B1; assay: self-cleavage kobs at 2500 uM GlcN6P; higher = faster cleavage; RNA array
Procedure, shortened: as §1

[6] = variants of: B1; assay: self-cleavage kobs at 10000 uM GlcN6P; higher = faster cleavage; RNA array
Procedure, shortened: as §1

[7] = variants of: B1; assay: KM; higher = weaker cofactor use; RNA array
Procedure, shortened: as §1

Variant	kcat [1] [s⁻¹]	self-cleavage kobs at 40 uM GlcN6P [2] [s⁻¹]	self-cleavage kobs at 160 uM GlcN6P [3] [s⁻¹]	self-cleavage kobs at 640 uM GlcN6P [4] [s⁻¹]	self-cleavage kobs at 2500 uM GlcN6P [5] [s⁻¹]	self-cleavage kobs at 10000 uM GlcN6P [6] [s⁻¹]	KM [7] [µM]
AUAAAAGCGCCAGAACUACAGAAAUGUAGUUGACGAGGAGGAGGAUUAUCGAAUUUUCGGCGGAUGCCUCAAAA [U45A C71A]	0.00337 ± 0.0013	0.00019 ± 3.7e-05	0.000518 ± 0.00016	0.000907 ± 0.00022	0.00202 ± 0.00085	0.00396 ± 0.00073	
AUAAAAGCGCCAGAACUACAGAAAUGUAGUUGACUAGGAGGAGGUUUAUCGAAUUUUCGGCGGAAGCCUCCAAA [G35U U65A]	< 1e-05	< 1e-05		< 1e-05	< 1e-05		
AUAAAAGCGCCAGAACUACAGAAAUGUAGUUGACGAGGAGGAGGUUUAUCGAAAUAUCGGCGGAUGCCUCCAAA [U54A U56A]	0.0109 ± 0.0014	0.00022 ± 4e-05	0.000706 ± 0.0002	0.00224 ± 0.00048	0.00712 ± 0.002	0.00887 ± 0.0017	2140 ± 380
AUAAAAGCGCCAGCACUACAGAAAUGUAGUAGACGAGGAGGAGGUUUAUCGAAUUUUCGGCGGAUGCCUCCAAA [A14C U31A]	0.0083 ± 0.0041	0.000559 ± 0.00011	0.00135 ± 0.00031	0.00413 ± 0.0019	0.00676 ± 0.0026		
AUAAAAGCGCCAGAACUACAGAAAUGUAGUUGACGAGGAGAAGGUUUAGCGAAUUUUCGGCGGAUGCCUCCAAA [G41A U49G]	3.79e-05 ± 6.4e-06				3.9e-05 ± 1e-05	3.34e-05 ± 8.6e-06	
AUAAAAGCGCCAGAACUACAGAAAUGUAGUUGACGAGGAGGGGGUGUAUCGAAUUUUCGGCGGAUGCCUCCAAA [A42G U46G]	0.017 ± 0.0083	0.000254 ± 6.6e-05	0.000694 ± 0.00017	0.00167 ± 0.00038	0.0074 ± 0.0015	0.0115 ± 0.0033	
AUAAAAGCGCCAGAACUACAGAAAUGUAGUUGACGAGGAGGGGGUCUAUCGAAUUUUCGGCGGAUGCCUCCAAA [A42G U46C]	0.00159 ± 0.00025	5.01e-05 ± 1.5e-05	0.000237 ± 4.5e-05	0.000597 ± 9.9e-05	0.00137 ± 0.00023	0.00122 ± 0.00028	1020 ± 260
AUAAAAGCGCCAGAACUACAGAAAUGUAGUUGACGAGGAGGAGGUUUAUCGAGUUUUCGGCGGAUGCCUGCAAA [A53G C70G]	0.000195 ± 1.8e-05	0.000132 ± 2.3e-05	0.000309 ± 9.5e-05	0.000196 ± 2.9e-05	0.000173 ± 2.5e-05	0.000215 ± 3.6e-05	
AUAAAAGCGCCAGAACUACAGAAAUGUAGUUGACGAGGAGGAGCUUCAUCGAAUUUUCGGCGGAUGCCUCCAAA [G44C U47C]	1.4e-05 ± 4.3e-06						
AUAAAAGCGCCAGAACUACAGAAAUGUAGUUGACGAGGAGGAGGAUUAUCGAAUUUUGGGCGGAUGCCUCCAAA [U45A C58G]	0.000316 ± 8.7e-05				0.000129 ± 3.2e-05	0.000222 ± 4.9e-05	
AUAAAAGCGCAGGAACUACAGAAAUGUAGUUGACGAGGAGGAGGUUUAUCGAAUUUUCGGCGGAUGCCUCCAAA [C11A A12G]	0.000158 ± 1.7e-05			2.43e-05 ± 1.1e-05	8.06e-05 ± 2.3e-05	0.000119 ± 2.5e-05	3020 ± 720
AUAAAAGCGCCAGGACUACAGAAAUGUAGUUGACGAGGAGGAGGUUUAUCGAAUUUUCGGCGGGUGCCUCCAAA [A14G A64G]	0.0806 ± 0.028	0.00184 ± 0.00024	0.00428 ± 0.001	0.0212 ± 0.0065		0.0677 ± 0.017	2030 ± 810
AUAAAAGCGCCAGAACUACAGAAAUGUAGUUGACGAGGAGGAGGUUUAUCGAAUUUGCGGCGGAUGCCCCCAAA [U57G U69C]	1.77e-05 ± 7.2e-06						
AUAAAAGCGCCUGAACUACAGAAAUGUAGUUGACGAGGAGGACGUUUAUCGAAUUUUCGGCGGAUGCCUCCAAA [A12U G43C]	1.4e-05 ± 1.4e-06		< 1e-05	< 1e-05			6950 ± 1500
AUAAAAGCGCCAGAACUACAGAAAUGUAGUUGACGAGGAGGAGGAGUAUCGAAUUUUCGGCGGAUGCCUCCAAA [U45A U46G]	0.0594 ± 0.012	0.00256 ± 0.00026	0.00762 ± 0.0012	0.0264 ± 0.006	0.0366 ± 0.012	0.0669 ± 0.021	939 ± 230
AUAAAAGCGCCAGAACUACAGAAAUGUAGUUUACGAGGAGGAGGAUUAUCGAAUUUUCGGCGGAUGCCUCCAAA [G32U U45A]	0.00202 ± 0.00071	0.000103 ± 3.9e-05	9.56e-05 ± 2.1e-05	0.000279 ± 6.8e-05	0.000762 ± 0.00034	0.00155 ± 0.0003	3440 ± 1700
